Reference: US20230331827A1 (MAXION THERAPEUTICS, published 2023)

Target: human cMET (human, UniProt P08581 25-932)
Assay: phage TRF on cMET

Chain of human cMET (P08581 25-932 limits assumed): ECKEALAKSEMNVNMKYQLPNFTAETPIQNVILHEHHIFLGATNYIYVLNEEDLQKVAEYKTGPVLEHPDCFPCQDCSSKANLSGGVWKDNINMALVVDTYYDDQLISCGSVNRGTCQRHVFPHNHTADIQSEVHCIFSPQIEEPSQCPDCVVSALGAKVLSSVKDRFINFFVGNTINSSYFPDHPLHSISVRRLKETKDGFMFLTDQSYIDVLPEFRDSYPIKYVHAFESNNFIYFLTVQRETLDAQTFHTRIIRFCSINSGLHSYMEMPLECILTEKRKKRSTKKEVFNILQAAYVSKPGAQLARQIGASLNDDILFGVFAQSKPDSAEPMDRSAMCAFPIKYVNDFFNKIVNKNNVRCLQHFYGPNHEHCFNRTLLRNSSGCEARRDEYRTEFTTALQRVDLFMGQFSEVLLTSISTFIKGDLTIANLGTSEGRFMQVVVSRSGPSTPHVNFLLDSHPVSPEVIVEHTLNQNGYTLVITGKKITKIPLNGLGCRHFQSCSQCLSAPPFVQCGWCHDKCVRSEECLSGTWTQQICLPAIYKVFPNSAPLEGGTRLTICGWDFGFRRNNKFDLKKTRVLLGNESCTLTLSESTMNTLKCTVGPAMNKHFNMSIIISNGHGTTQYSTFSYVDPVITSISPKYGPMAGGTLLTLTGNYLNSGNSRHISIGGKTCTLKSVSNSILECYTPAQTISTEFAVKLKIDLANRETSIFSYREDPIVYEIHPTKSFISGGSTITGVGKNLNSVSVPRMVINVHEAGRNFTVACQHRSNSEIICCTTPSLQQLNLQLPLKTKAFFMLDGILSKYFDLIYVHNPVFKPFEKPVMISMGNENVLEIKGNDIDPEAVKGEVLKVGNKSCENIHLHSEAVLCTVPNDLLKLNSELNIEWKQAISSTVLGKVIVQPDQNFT

B1: KB_A12_cMET_H08 (scFv, V domains shown)
VH: EVQLVESGGGLVRPGGSLRLSCAASGFTFSSYAMSWVRQAPGKGLEWVSAISGSGGSTYYADSVKGRFTISRDNTKNSLYLQMTSLRADDTAFYYCVKDFGPGYGTGWFDYWGPGTLVTVSS
VL: AVNWYQQLPGKAPKLLIYAAGRCQTGRSGTGRCKQDSDCLAGCVCGPNGFCGANSGVSDRFSAAKSGTSASLAINGLRSEDEADYYCAAWDDSLNGYVFGTGTKLTVLG
TRF signal: 6730
